Assay results from US20140271635A1 (Novartis, published 2014).
Numbering of substitutions follows the chain as printed. Values belong to the binder of their own block, whether it stands above or below them.

Target: T1, full length human CD19 expressed on mouse preB cell line 300.19 (300.19-hsCD19FL) (human, UniProt P15391 20-556)
T1 construct: whole, on cells; also called hCD19; 300.CD19
T1 sequence (looked up): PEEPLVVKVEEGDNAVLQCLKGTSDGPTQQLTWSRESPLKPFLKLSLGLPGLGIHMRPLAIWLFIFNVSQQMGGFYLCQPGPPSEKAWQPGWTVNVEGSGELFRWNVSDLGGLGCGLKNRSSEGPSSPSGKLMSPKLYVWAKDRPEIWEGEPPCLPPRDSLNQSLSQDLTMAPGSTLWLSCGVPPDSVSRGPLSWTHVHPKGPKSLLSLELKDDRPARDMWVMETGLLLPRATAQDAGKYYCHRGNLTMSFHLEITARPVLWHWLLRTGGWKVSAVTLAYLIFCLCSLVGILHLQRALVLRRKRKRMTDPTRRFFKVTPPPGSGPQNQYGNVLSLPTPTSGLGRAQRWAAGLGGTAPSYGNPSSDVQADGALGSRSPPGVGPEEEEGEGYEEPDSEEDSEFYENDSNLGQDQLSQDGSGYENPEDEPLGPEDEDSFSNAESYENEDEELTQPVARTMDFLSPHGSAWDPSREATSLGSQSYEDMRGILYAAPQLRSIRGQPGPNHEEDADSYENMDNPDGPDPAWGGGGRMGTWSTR
Assay: flow cytometry on mouse 300.19 cells expressing hCD19, His-tagged scFv
Protocol: Mouse cell line 300.CD19 were grown in RPMI 1640 with 0.5 mg/ml Zeocin. Around 5e5 cells/per well were transferred to the BD Falcon 96 well plate. The cells were spin down at 900 rpm (Sorval Legend XT centrifuge) for 3 minutes. The supernatant were removed. Anti-CD19 scFv protein samples were diluted in DPBS with 5% FBS. The samples were added into the wells, mixed well with the cells and incubated for 1 hour. The cells were washed twice in the DPBS with 5% FBS. The cells were incubated with antipoly His PE (R&D) for 1 hour, washed twice before FACS analysis (LSRII from BD Biosciences).

B1: 100796 CAR7 - Soluble scFv (scFv)
scFv: QVQLQESGPGLVKPSETLSLTCTVSGVSLPDYGVSWIRQPPGKGLEWIGVIWGSETTYYSSSLKSRVTISKDNSKNQVSLKLSSVTAADTAVYYCAKHYYYGGSYAMDYWGQGTLVTVSSGGGGSGGGGSGGGGSGGGGSEIVMTQSPATLSLSPGERATLSCRASQDISKYLNWYQQKPGQAPRLLIYHTSRLHSGIPARFSGSGSGTDYTLTISSLQPEDFAVYFCQQGNTLPYTFGQGTKLEIKHHHHHHHH
notes: Built here without the leader
binding result: binds

B3: 99789 CAR5 - Soluble scFv (scFv)
scFv: EIVMTQSPATLSLSPGERATLSCRASQDISKYLNWYQQKPGQAPRLLIYHTSRLHSGIPARFSGSGSGTDYTLTISSLQPEDFAVYFCQQGNTLPYTFGQGTKLEIKGGGGSGGGGSGGGGSGGGGSQVQLQESGPGLVKPSETLSLTCTVSGVSLPDYGVSWIRQPPGKGLEWIGVIWGSETTYYSSSLKSRVTISKDNSKNQVSLKLSSVTAADTAVYYCAKHYYYGGSYAMDYWGQGTLVTVSSHHHHHHHH
notes: Built here without the leader
binding result: binds

B5: 103101 CAR1 Soluble scFv (scFv)
scFv: EIVMTQSPATLSLSPGERATLSCRASQDISKYLNWYQQKPGQAPRLLIYHTSRLHSGIPARFSGSGSGTDYTLTISSLQPEDFAVYFCQQGNTLPYTFGQGTKLEIKGGGGSGGGGSGGGGSQVQLQESGPGLVKPSETLSLTCTVSGVSLPDYGVSWIRQPPGKGLEWIGVIWGSETTYYSSSLKSRVTISKDNSKNQVSLKLSSVTAADTAVYYCAKHYYYGGSYAMDYWGQGTLVTVSSHHHHHHHH
notes: Built here without the leader
binding result: binds

B7: 103104 CAR 3 - Soluble scFv (scFv)
scFv: QVQLQESGPGLVKPSETLSLTCTVSGVSLPDYGVSWIRQPPGKGLEWIGVIWGSETTYYSSSLKSRVTISKDNSKNQVSLKLSSVTAADTAVYYCAKHYYYGGSYAMDYWGQGTLVTVSSGGGGSGGGGSGGGGSEIVMTQSPATLSLSPGERATLSCRASQDISKYLNWYQQKPGQAPRLLIYHTSRLHSGIPARFSGSGSGTDYTLTISSLQPEDFAVYFCQQGNTLPYTFGQGTKLEIKHHHHHHHH
notes: Built here without the leader
binding result: binds

Now from value to binder:

binding result: binds
B2: 100798 CAR8 - Soluble scFv (scFv)
scFv: B1 scFv with S60Q
notes: Built here without the leader

binding result: binds
B4: 99790 CAR6 - Soluble scFv (scFv)
scFv: B3 scFv with S187Q
notes: Built here without the leader

binding result: binds
B6: 103102 CAR2 - Soluble scFv (scFv)
scFv: B5 scFv with S182Q
notes: Built here without the leader

binding result: binds
B8: 103106 CAR4 - Soluble scFv (scFv)
scFv: B7 scFv with S60Q
notes: Built here without the leader
